Test results from US20240043537A1 (MacroGenics, published 2024).

B1: T-CD123-WT (other)
chain 1: DFVMTQSPDSLAVSLGERVTMSCKSSQSLLNSGNQKNYLTWYQQKPGQPPKLLIYWASTRESGVPDRFSGSGSGTDFTLTISSLQAEDVAVYYCQNDYSYPYTFGQGTKLEIKGGGSGGGGEVQLVESGGGLVQPGGSLRLSCAASGFTFSTYAMNWVRQAPGKGLEWVGRIRSKYNNYATYYADSVKDRFTISRDDSKNSLYLQMNSLKTEDTAVYYCVRHGNFGNSYVSWFAYWGQGTLVTVSSGGCGGGEVAALEKEVAALEKEVAALEKEVAALEKGGGDKTHTCPPCPAPEAAGGPSVFLFPPKPKDTLMISRTPEVTCVVVDVSHEDPEVKFNWYVDGVEVHNAKTKPREEQYNSTYRVVSVLTVLHQDWLNGKEYKCKVSNKALPAPIEKTISKAKGQPREPQVYTLPPSREEMTKNQVSLWCLVKGFYPSDIAVEWESNGQPENNYKTTPPVLDSDGSFFLYSKLTVDKSRWQQGNVFSCSVMHEALHNHYTQKSLSLSPGK
chain 2: QAVVTQEPSLTVSPGGTVTLTCRSSTGAVTTSNYANWVQQKPGQAPRGLIGGTNKRAPWTPARFSGSLLGGKAALTITGAQAEDEADYYCALWYSNLWVFGGGTKLTVLGGGGSGGGGEVQLVQSGAELKKPGASVKVSCKASGYTFTDYYMKWVRQAPGQGLEWIGDIIPSNGATFYNQKFKGRVTITVDKSTSTAYMELSSLRSEDTAVYYCARSHLLRASWFAYWGQGTLVTVSSGGCGGGKVAALKEKVAALKEKVAALKEKVAALKE
heavy: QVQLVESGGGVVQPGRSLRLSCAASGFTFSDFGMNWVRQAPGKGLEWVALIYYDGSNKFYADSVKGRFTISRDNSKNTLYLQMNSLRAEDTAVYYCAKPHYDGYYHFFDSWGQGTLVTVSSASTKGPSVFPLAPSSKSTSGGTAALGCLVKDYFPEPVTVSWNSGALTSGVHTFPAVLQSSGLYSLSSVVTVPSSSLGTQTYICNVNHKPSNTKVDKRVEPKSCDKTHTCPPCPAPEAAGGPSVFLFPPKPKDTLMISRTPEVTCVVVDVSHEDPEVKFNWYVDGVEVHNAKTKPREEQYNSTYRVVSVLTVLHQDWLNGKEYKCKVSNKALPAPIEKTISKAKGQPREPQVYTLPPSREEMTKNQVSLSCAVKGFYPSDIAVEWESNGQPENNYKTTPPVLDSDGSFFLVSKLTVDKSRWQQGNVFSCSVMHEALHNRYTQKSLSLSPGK
light: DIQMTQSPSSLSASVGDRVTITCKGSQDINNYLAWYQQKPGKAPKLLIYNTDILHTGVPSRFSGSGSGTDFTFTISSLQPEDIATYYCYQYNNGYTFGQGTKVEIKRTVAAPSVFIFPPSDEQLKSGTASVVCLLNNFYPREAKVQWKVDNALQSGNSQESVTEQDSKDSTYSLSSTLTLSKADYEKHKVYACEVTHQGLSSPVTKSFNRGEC
notes: Four-chain trivalent CD123 x CD3 x CD8 molecule with Fc; also called CD123 mAb 1 x CD3 mAb 1 x TRX2 TRIVALENT-type molecule
B2: T-CD123-M1 (other)
chain 1: DFVMTQSPDSLAVSLGERVTMSCKSSQSLLNSGNQKNYLTWYQQKPGQPPKLLIYWASTRESGVPDRFSGSGSGTDFTLTISSLQAEDVAVYYCQNDYSYPYTFGQGTKLEIKGGGSGGGGEVQLVESGGGLVQPGGSLRLSCAASGFTFSTYAMNWVRQAPGKGLEWVGRIRSKYNNYATYYADSVKDRFTISRDDSKNSLYLQMNSLKTEDTAVYYCVRHGNFGNSYVTWFAYWGQGTLVTVSSGGCGGGEVAALEKEVAALEKEVAALEKEVAALEKGGGDKTHTCPPCPAPEAAGGPSVFLFPPKPKDTLMISRTPEVTCVVVDVSHEDPEVKFNWYVDGVEVHNAKTKPREEQYNSTYRVVSVLTVLHQDWLNGKEYKCKVSNKALPAPIEKTISKAKGQPREPQVYTLPPSREEMTKNQVSLWCLVKGFYPSDIAVEWESNGQPENNYKTTPPVLDSDGSFFLYSKLTVDKSRWQQGNVFSCSVMHEALHNHYTQKSLSLSPGK
chain 2: QAVVTQEPSLTVSPGGTVTLTCRSSTGAVTTSNYANWVQQKPGQAPRGLIGGTNKRAPWTPARFSGSLLGGKAALTITGAQAEDEADYYCALWYSNLWVFGGGTKLTVLGGGGSGGGGEVQLVQSGAELKKPGASVKVSCKASGYTFTDYYMKWVRQAPGQGLEWIGDIIPSNGATFYNQKFKGRVTITVDKSTSTAYMELSSLRSEDTAVYYCARSHLLRASWFAYWGQGTLVTVSSGGCGGGKVAALKEKVAALKEKVAALKEKVAALKE
heavy: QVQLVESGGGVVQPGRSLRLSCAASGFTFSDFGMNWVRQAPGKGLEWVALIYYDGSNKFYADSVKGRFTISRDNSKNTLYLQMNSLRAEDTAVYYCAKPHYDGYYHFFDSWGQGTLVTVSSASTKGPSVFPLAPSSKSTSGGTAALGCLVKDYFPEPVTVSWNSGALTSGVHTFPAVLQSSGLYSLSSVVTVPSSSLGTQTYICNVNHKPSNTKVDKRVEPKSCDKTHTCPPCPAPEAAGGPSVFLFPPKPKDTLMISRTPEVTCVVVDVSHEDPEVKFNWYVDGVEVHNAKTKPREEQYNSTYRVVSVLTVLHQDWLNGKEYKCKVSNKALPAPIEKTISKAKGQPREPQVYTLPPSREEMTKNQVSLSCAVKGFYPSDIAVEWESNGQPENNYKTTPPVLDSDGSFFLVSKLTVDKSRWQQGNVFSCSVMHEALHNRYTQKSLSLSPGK
light: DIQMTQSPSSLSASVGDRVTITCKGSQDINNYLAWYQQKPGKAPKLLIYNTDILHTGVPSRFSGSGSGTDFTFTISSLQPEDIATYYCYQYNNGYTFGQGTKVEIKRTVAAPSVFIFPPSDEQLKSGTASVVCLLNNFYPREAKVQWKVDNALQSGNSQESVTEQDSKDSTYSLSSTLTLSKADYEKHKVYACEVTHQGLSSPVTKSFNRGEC
notes: Four-chain trivalent CD123 x CD3 x CD8 molecule with Fc; also called CD123 mAb 1 x CD3 mAb 1 M1 x TRX2 TRIVALENT-type molecule
B3: T-CD123-M2 (other)
chain 1: DFVMTQSPDSLAVSLGERVTMSCKSSQSLLNSGNQKNYLTWYQQKPGQPPKLLIYWASTRESGVPDRFSGSGSGTDFTLTISSLQAEDVAVYYCQNDYSYPYTFGQGTKLEIKGGGSGGGGEVQLVESGGGLVQPGGSLRLSCAASGFTFSTYAMNWVRQAPGKGLEWVGRIRSKYNNYATYYADSVKDRFTISRDDSKNSLYLQMNSLKTEDTAVYYCVRHKNFGNSYVTWFAYWGQGTLVTVSSGGCGGGEVAALEKEVAALEKEVAALEKEVAALEKGGGDKTHTCPPCPAPEAAGGPSVFLFPPKPKDTLMISRTPEVTCVVVDVSHEDPEVKFNWYVDGVEVHNAKTKPREEQYNSTYRVVSVLTVLHQDWLNGKEYKCKVSNKALPAPIEKTISKAKGQPREPQVYTLPPSREEMTKNQVSLWCLVKGFYPSDIAVEWESNGQPENNYKTTPPVLDSDGSFFLYSKLTVDKSRWQQGNVFSCSVMHEALHNHYTQKSLSLSPGK
chain 2: QAVVTQEPSLTVSPGGTVTLTCRSSTGAVTTSNYANWVQQKPGQAPRGLIGGTNKRAPWTPARFSGSLLGGKAALTITGAQAEDEADYYCALWYSNLWVFGGGTKLTVLGGGGSGGGGEVQLVQSGAELKKPGASVKVSCKASGYTFTDYYMKWVRQAPGQGLEWIGDIIPSNGATFYNQKFKGRVTITVDKSTSTAYMELSSLRSEDTAVYYCARSHLLRASWFAYWGQGTLVTVSSGGCGGGKVAALKEKVAALKEKVAALKEKVAALKE
heavy: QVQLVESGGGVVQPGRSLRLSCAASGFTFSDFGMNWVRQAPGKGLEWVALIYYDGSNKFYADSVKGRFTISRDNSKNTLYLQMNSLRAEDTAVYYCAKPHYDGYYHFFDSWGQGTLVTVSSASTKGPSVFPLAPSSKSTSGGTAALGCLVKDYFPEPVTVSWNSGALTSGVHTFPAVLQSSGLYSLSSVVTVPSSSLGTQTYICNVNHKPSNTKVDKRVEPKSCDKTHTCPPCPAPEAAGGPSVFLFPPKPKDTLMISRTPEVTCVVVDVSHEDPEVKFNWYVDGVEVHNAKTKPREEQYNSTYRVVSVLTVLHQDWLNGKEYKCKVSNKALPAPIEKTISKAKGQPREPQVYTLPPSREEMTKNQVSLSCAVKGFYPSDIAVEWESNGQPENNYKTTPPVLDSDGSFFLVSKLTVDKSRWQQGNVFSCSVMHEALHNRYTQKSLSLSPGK
light: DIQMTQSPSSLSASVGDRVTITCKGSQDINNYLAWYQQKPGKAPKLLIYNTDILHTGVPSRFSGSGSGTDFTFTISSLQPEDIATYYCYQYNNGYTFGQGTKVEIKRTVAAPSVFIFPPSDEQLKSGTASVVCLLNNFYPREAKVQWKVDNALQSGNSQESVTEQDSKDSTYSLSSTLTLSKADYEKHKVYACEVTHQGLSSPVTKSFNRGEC
notes: Four-chain trivalent CD123 x CD3 x CD8 molecule with Fc; also called CD123 mAb 1 x CD3 mAb 1 M2 x TRX2 TRIVALENT-type molecule
B4: T-CD123-M18 (other)
chain 1: DFVMTQSPDSLAVSLGERVTMSCKSSQSLLNSGNQKNYLTWYQQKPGQPPKLLIYWASTRESGVPDRFSGSGSGTDFTLTISSLQAEDVAVYYCQNDYSYPYTFGQGTKLEIKGGGSGGGGEVQLVESGGGLVQPGGSLRLSCAASGFTFSTYGMNWVRQAPGKGLEWVGRIRSKYNNYATYYADSVKDRFTISRDDSKNSLYLQMNSLKTEDTAVYYCVRHGNFGNSYVSWFAYWGQGTLVTVSSGGCGGGEVAALEKEVAALEKEVAALEKEVAALEKGGGDKTHTCPPCPAPEAAGGPSVFLFPPKPKDTLMISRTPEVTCVVVDVSHEDPEVKFNWYVDGVEVHNAKTKPREEQYNSTYRVVSVLTVLHQDWLNGKEYKCKVSNKALPAPIEKTISKAKGQPREPQVYTLPPSREEMTKNQVSLWCLVKGFYPSDIAVEWESNGQPENNYKTTPPVLDSDGSFFLYSKLTVDKSRWQQGNVFSCSVMHEALHNHYTQKSLSLSPGK
chain 2: QAVVTQEPSLTVSPGGTVTLTCRSSTGAVTTSNYANWVQQKPGQAPRGLIGGTNKRAPWTPARFSGSLLGGKAALTITGAQAEDEADYYCALWYSNLWVFGGGTKLTVLGGGGSGGGGEVQLVQSGAELKKPGASVKVSCKASGYTFTDYYMKWVRQAPGQGLEWIGDIIPSNGATFYNQKFKGRVTITVDKSTSTAYMELSSLRSEDTAVYYCARSHLLRASWFAYWGQGTLVTVSSGGCGGGKVAALKEKVAALKEKVAALKEKVAALKE
heavy: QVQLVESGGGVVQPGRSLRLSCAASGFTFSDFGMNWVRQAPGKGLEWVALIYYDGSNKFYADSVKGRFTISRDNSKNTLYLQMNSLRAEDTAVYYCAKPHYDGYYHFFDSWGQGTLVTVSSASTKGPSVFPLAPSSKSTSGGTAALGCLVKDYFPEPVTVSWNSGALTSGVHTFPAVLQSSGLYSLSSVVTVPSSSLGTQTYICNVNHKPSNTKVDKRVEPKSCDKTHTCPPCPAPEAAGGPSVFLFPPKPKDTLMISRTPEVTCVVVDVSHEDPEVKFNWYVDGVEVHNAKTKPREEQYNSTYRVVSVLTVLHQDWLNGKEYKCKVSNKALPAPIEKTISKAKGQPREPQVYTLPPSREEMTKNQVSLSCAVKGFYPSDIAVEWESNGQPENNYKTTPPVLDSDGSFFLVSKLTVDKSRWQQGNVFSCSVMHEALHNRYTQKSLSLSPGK
light: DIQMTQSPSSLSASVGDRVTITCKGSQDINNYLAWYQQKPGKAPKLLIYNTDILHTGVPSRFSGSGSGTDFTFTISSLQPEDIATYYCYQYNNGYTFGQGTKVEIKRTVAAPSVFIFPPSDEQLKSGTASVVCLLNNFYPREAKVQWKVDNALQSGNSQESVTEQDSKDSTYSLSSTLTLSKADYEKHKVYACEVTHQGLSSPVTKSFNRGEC
notes: Four-chain trivalent CD123 x CD3 x CD8 molecule with Fc; also called CD123 mAb 1 x CD3 mAb 1 M18 x TRX2 TRIVALENT-type molecule

target: T1, CD123 on MOLM-13 cells (UniProt P26951 19-378, limits assumed); experiment: flow cytometry on CD123-expressing MOLM-13 cells, MFI (geo mean) against concentration (nM)
T1 construct: whole, on cells; also called CD123-expressing MOLM-13 cells
T1 sequence (P26951 19-378 limits assumed): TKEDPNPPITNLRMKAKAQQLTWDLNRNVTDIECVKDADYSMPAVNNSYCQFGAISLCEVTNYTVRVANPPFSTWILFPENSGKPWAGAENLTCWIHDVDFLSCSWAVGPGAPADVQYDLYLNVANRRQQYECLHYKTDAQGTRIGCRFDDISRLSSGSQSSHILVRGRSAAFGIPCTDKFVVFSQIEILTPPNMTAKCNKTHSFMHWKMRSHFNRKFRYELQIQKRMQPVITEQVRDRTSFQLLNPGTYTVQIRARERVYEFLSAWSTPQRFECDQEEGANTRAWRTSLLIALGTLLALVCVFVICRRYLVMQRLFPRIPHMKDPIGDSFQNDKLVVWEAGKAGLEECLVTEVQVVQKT

Question: Does B1 bind?
Answer: binds

Question: Does B2 bind?
Answer: binds

Question: Does B3 bind?
Answer: binds

Question: Does B4 bind?
Answer: binds
